Assay results reported in US20090311267A1.

Columns and labels:
[1] = target: baboon platelet GPIb (on baboon platelets) (baboon (Papio ursinus)); assay: 125I-labelled fragment on baboon platelets in plasma
[2] = target: baboon platelet GPIb (on baboon platelets) (baboon (Papio ursinus)); assay: GPIb occupancy on baboon platelets, 30 minutes after bolus of 2 mg/kg
[3] = target: baboon platelet GPIb (on baboon platelets) (baboon (Papio ursinus)); assay: GPIb occupancy on baboon platelets, 60 minutes after bolus of 2 mg/kg
[4] = target: baboon platelet GPIb (on baboon platelets) (baboon (Papio ursinus)); assay: GPIb occupancy on baboon platelets, 60 minutes after bolus of 4 mg/kg
[5] = target: baboon platelet GPIb (on baboon platelets) (baboon (Papio ursinus)); assay: GPIb occupancy on baboon platelets, 150 minutes after bolus of 2 mg/kg
[6] = target: baboon platelet GPIb (on baboon platelets) (baboon (Papio ursinus)); assay: GPIb occupancy on baboon platelets, 150 minutes after bolus of 600 µg/kg
[7] = target: baboon platelet GPIb (on baboon platelets) (baboon (Papio ursinus)); assay: GPIb occupancy on baboon platelets, 30 minutes after bolus of 4 mg/kg
[8] = target: baboon platelet GPIb (on baboon platelets) (baboon (Papio ursinus)); assay: GPIb occupancy on baboon platelets, 300 minutes after bolus of 600 µg/kg
[9] = target: baboon platelet GPIb (on baboon platelets) (baboon (Papio ursinus)); assay: GPIb occupancy on baboon platelets, 150 minutes after bolus of 4 mg/kg
[10] = target: baboon platelet GPIb (on baboon platelets) (baboon (Papio ursinus)); assay: GPIb occupancy on baboon platelets, 30 minutes after bolus of 600 µg/kg
[11] = target: baboon platelet GPIb (on baboon platelets) (baboon (Papio ursinus)); assay: cell-based or functional assay
[12] = target: baboon platelet GPIb (on baboon platelets) (baboon (Papio ursinus)); assay: GPIb occupancy on baboon platelets, 300 minutes after bolus of 2 mg/kg
[13] = target: baboon platelet GPIb (on baboon platelets) (baboon (Papio ursinus)); assay: GPIb occupancy on baboon platelets, 300 minutes after bolus of 4 mg/kg
[14] = target: baboon platelet GPIb (on baboon platelets) (baboon (Papio ursinus)); assay: GPIb occupancy on baboon platelets, 60 minutes after bolus of 600 µg/kg
[15] = target: purified human von Willebrand factor (human) (UniProt P04275); assay: ELISA: inhibition of plasma or purified vWF binding to coated human collagen type I
[16] = target: purified human von Willebrand factor (human) (UniProt P04275); assay: cell-based or functional assay
[17] = target: mouse GPIIb/IIIa (on mouse platelets) (mouse) (UniProt Q9QUM0); assay: receptor occupancy on platelets of mice after 10 µg JON/A F(ab)2 i.v.
mouse GPIIb/IIIa (on mouse platelets) (mouse), sequence (Q9QUM0 32-1033, chain 1 of 2): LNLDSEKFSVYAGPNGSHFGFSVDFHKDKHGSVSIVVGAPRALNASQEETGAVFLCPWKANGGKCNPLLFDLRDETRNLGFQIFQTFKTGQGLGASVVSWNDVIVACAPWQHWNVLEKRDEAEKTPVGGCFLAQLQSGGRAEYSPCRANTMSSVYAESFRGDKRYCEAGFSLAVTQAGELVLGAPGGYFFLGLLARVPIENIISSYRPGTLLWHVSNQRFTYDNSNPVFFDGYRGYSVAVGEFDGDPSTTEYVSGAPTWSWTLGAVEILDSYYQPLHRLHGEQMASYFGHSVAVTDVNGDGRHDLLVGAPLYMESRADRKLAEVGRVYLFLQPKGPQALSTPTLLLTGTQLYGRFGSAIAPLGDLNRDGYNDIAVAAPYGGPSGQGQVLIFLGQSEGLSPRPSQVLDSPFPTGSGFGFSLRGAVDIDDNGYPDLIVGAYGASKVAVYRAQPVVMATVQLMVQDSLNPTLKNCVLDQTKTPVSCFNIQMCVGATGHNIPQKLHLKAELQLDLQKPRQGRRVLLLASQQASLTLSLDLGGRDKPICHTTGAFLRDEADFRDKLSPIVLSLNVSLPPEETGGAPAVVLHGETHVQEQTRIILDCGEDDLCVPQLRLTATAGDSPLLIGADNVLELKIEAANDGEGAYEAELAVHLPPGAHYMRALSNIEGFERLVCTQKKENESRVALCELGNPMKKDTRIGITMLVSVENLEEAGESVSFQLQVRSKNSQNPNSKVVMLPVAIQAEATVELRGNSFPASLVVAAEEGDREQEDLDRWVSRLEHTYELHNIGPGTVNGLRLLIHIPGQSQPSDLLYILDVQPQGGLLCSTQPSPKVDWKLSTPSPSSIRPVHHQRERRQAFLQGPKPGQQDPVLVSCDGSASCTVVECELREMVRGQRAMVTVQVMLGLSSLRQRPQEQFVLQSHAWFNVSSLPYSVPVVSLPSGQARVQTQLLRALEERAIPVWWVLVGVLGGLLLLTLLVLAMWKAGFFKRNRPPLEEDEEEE
mouse GPIIb/IIIa (on mouse platelets) (mouse), sequence (O54890 26-787, chain 2 of 2, further chain): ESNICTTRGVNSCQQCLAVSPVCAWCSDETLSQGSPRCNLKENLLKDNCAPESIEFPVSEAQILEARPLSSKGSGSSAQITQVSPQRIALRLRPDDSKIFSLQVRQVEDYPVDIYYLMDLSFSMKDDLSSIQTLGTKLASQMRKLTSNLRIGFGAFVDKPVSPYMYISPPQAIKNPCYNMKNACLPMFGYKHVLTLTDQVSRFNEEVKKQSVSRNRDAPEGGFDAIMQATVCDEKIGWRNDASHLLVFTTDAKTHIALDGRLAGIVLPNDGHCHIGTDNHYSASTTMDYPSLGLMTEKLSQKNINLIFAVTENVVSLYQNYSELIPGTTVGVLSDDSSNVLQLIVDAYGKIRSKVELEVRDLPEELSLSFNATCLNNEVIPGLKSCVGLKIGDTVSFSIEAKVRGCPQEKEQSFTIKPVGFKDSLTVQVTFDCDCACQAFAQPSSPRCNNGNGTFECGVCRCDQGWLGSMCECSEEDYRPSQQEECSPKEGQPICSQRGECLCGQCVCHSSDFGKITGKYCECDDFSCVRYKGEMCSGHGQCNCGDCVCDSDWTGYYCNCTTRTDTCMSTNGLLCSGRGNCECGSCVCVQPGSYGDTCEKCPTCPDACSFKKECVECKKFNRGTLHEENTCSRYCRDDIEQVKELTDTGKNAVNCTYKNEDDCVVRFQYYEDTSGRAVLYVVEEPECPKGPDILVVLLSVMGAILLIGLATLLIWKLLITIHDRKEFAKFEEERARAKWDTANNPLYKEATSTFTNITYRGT

[18] = target: mouse GPIIb/IIIa (on mouse platelets) (mouse) (UniProt Q9QUM0); assay: receptor occupancy on platelets of mice after 20 µg JON/A F(ab)2 i.v.
[19] = target: mouse GPIIb/IIIa (on mouse platelets) (mouse) (UniProt Q9QUM0); assay: receptor occupancy on platelets of mice after 100 µg JON/A F(ab)2 i.v.
[20] = target: human collagen type I (human) (UniProt P02452); assay: ex vivo ELISA, baboon plasma vWF on human collagen type I, % of pre-sample; 82D6A3 300 µg/kg group, 0 min
human collagen type I (human), sequence (P02452 162-1218, chain 1 of 2): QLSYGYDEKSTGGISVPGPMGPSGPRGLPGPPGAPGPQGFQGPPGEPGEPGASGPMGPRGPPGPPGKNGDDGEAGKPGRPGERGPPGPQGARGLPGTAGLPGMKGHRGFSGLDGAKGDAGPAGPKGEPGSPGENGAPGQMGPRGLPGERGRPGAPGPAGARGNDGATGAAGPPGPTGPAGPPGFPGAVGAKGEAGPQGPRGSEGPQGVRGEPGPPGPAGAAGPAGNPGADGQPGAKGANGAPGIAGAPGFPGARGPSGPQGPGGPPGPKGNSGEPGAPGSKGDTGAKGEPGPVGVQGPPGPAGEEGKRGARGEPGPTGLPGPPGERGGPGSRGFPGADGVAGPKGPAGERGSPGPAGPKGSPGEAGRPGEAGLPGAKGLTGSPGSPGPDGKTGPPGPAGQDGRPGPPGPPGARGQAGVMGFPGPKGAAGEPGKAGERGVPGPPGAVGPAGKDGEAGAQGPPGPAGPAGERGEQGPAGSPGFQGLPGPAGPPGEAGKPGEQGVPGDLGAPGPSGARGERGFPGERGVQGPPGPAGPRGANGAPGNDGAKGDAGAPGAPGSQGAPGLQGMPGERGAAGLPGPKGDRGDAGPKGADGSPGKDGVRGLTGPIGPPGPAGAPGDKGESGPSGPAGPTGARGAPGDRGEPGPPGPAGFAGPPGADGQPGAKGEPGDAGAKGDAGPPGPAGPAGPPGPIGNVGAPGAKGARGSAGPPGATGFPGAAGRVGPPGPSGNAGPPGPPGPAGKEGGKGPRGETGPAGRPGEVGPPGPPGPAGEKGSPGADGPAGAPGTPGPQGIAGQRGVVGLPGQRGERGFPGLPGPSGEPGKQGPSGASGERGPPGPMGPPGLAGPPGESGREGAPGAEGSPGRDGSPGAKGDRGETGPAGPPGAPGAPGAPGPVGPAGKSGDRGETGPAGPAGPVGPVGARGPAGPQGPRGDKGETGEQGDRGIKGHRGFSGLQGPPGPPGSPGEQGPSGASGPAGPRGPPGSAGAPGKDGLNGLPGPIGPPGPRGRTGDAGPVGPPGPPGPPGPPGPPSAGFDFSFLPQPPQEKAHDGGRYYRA
human collagen type I (human), sequence (P08123 80-1119, chain 2 of 2, further chain): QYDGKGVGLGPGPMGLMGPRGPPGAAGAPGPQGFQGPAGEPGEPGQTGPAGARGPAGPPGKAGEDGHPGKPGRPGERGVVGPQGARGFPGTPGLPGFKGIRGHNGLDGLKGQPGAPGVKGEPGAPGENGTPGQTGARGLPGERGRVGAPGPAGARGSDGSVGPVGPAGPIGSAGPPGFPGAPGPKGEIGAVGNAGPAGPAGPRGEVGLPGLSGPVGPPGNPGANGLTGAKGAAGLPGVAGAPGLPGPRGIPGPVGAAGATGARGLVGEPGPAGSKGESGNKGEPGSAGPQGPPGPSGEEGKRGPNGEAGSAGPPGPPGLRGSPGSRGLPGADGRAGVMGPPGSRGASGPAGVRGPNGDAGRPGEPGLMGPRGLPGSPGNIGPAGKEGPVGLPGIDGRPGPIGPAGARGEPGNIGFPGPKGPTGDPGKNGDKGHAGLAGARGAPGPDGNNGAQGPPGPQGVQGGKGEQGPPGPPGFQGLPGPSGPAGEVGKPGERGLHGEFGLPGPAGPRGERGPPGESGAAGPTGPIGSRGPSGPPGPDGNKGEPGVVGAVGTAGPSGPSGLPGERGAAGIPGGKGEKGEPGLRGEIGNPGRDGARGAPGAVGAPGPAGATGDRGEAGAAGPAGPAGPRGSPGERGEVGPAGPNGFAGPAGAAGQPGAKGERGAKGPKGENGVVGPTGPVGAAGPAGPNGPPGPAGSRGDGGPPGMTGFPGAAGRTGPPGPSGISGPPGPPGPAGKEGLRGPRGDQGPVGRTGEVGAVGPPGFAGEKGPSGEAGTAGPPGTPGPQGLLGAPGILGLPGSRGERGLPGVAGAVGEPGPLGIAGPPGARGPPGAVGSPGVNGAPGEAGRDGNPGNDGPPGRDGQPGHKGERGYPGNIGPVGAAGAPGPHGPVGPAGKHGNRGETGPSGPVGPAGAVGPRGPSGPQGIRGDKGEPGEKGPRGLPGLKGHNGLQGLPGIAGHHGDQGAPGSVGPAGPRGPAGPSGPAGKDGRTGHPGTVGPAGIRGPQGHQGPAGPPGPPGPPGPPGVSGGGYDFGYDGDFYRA

[21] = target: human collagen type I (human) (UniProt P02452); assay: ex vivo ELISA, baboon plasma vWF on human collagen type I, % of pre-sample; 82D6A3 300 µg/kg, 24 h
[22] = target: human collagen type I (human) (UniProt P02452); assay: ex vivo ELISA, baboon plasma vWF on human collagen type I, % of pre-sample; 82D6A3 100 µg/kg, 60 min
[23] = target: human collagen type I (human) (UniProt P02452); assay: ex vivo ELISA, baboon plasma vWF on human collagen type I, % of pre-sample; 82D6A3 600 µg/kg, 30 min
[24] = target: human collagen type I (human) (UniProt P02452); assay: ex vivo ELISA, baboon plasma vWF on human collagen type I, % of pre-sample; 82D6A3 300 µg/kg, 48 h
[25] = target: human collagen type I (human) (UniProt P02452); assay: ex vivo ELISA, baboon plasma vWF on human collagen type I, % of pre-sample; 82D6A3 100 µg/kg group, 0 min
[26] = target: human collagen type I (human) (UniProt P02452); assay: ex vivo ELISA, baboon plasma vWF on human collagen type I, % of pre-sample; 82D6A3 600 µg/kg, 150 min
[27] = target: human collagen type I (human) (UniProt P02452); assay: ex vivo ELISA, baboon plasma vWF on human collagen type I, % of pre-sample; 82D6A3 300 µg/kg, 150 min
[28] = target: human collagen type I (human) (UniProt P02452); assay: ex vivo ELISA, baboon plasma vWF on human collagen type I, % of pre-sample; 82D6A3 300 µg/kg, 300 min
[29] = target: human collagen type I (human) (UniProt P02452); assay: ex vivo ELISA, baboon plasma vWF on human collagen type I, % of pre-sample; 82D6A3 600 µg/kg, 24 h
[30] = target: human collagen type I (human) (UniProt P02452); assay: ex vivo ELISA, baboon plasma vWF on human collagen type I, % of pre-sample; 82D6A3 600 µg/kg, 300 min
[31] = target: human collagen type I (human) (UniProt P02452); assay: ex vivo ELISA, baboon plasma vWF on human collagen type I, % of pre-sample; 82D6A3 600 µg/kg, 60 min
[32] = target: human collagen type I (human) (UniProt P02452); assay: ex vivo ELISA, baboon plasma vWF on human collagen type I, % of pre-sample; 82D6A3 100 µg/kg, 30 min
[33] = target: human collagen type I (human) (UniProt P02452); assay: ex vivo ELISA, baboon plasma vWF on human collagen type I, % of pre-sample; 82D6A3 300 µg/kg, 30 min
[34] = target: human collagen type I (human) (UniProt P02452); assay: ex vivo ELISA, baboon plasma vWF on human collagen type I, % of pre-sample; 82D6A3 300 µg/kg, 60 min
[35] = target: human collagen type I (human) (UniProt P02452); assay: ex vivo ELISA, baboon plasma vWF on human collagen type I, % of pre-sample; 82D6A3 600 µg/kg group, 0 min

baboon platelet GPIb (on baboon platelets) (baboon (Papio ursinus)), sequence (A0A096 entry or part of it limits assumed, form in doubt): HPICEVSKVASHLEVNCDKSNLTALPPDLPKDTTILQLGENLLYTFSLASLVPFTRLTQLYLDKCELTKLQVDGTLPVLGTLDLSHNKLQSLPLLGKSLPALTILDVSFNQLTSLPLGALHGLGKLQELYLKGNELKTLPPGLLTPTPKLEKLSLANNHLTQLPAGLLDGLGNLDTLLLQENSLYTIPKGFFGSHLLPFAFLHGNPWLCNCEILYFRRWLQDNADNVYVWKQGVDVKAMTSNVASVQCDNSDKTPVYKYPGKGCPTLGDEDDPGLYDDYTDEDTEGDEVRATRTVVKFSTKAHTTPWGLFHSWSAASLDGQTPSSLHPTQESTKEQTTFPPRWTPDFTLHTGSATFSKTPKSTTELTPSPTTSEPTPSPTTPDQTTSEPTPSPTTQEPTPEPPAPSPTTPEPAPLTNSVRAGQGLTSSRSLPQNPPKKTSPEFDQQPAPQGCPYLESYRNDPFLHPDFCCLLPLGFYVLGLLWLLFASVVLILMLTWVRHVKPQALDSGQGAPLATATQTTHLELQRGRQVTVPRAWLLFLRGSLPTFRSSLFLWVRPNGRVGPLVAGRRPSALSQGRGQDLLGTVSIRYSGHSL

Work on 6B4 Fab fragments yielded a KD50 (half saturation) [1] of 49.2 nmol/L, a receptor occupancy [2] of 69.3% and a receptor occupancy [3] of 64.8%. The receptor occupancy [4] was 79%, the receptor occupancy [5] was 43.9% and the receptor occupancy [6] was 17.1%. For the same substance, the receptor occupancy [7] was 84%, the receptor occupancy [8] was 6.3% and the receptor occupancy [9] was 45.6%. The receptor occupancy [10] was 34.5%, the % inhibition of ex vivo ristocetin-induced (1.5 mg/mL) platelet agglutination; after 160 µg/kg, time 270 min [11] was 8% and the % inhibition of ex vivo ristocetin-induced (1.5 mg/mL) platelet agglutination; after 640 µg/kg, time 270 min [11] was 15%. It also gave a % inhibition of ex vivo ristocetin-induced (1.5 mg/mL) platelet agglutination; after 640 µg/kg, time 24 h [11] of 7%, a % inhibition of ex vivo ristocetin-induced (1.5 mg/mL) platelet agglutination; dose 80 µg/kg, time 90 min [11] of 26% and a % inhibition of ex vivo ristocetin-induced (1.5 mg/mL) platelet agglutination; dose 160 µg/kg, time 150 min [11] of 47%. The % inhibition of ex vivo ristocetin-induced (1.5 mg/mL) platelet agglutination; dose 320 µg/kg, time 90 min [11] was 25%, the % inhibition of ex vivo ristocetin-induced (1.5 mg/mL) platelet agglutination; dose 640 µg/kg, time 150 min [11] was 80% and the IC50 of ristocetin-induced baboon platelet aggregation [11] was 0.04 µM. It also gave an ex vivo ristocetin-induced platelet aggregation, % of the response before injection; 600 µg/kg, 60 minutes [11] of 16.8%, an ex vivo ristocetin-induced platelet aggregation, % of the response before injection; 600 µg/kg, 150 minutes [11] of 68.8% and an ex vivo ristocetin-induced platelet aggregation, % of the response before injection; 2 mg/kg, 60 minutes [11] of 5.2%. It also gave an ex vivo ristocetin-induced platelet aggregation, % of the response before injection; 2 mg/kg, 150 minutes [11] of 19.2%, an ex vivo ristocetin-induced platelet aggregation, % of the response before injection; 4 mg/kg, 60 minutes [11] of 2% and an ex vivo ristocetin-induced platelet aggregation, % of the response before injection; 4 mg/kg, 150 minutes [11] of 16%. The receptor occupancy [12] was 12.9%, the receptor occupancy [13] was 31.3% and the receptor occupancy [14] was 28.6%.
82D6A3 F(ab) fragment (Fab) was tested, and the IC50 [15] was 1 mg/L and the concentration for complete inhibition of platelet deposition on human collagen type I under flow, shear rate 1300 s^-1 [16] was 10 µg/mL.
JON/A F(ab)2 (antibody) was tested, and the Receptor occupancy, % [17] was 67.8%, the Receptor occupancy, % [18] was 78.4% and the Receptor occupancy, % [19] was greater than 95%.
“baboon vWF (in baboon plasma), A0A096N8H2 764-2813” was tested, and the collagen binding (%) [20] was 101%, the collagen binding (%) [21] was 91% and the collagen binding (%) [22] was 69%. It also gave a collagen binding (%) [23] of 4%, a collagen binding (%) [24] of 93% and a collagen binding (%) [25] of 101%. The collagen binding (%) [26] was 3.52%, the collagen binding (%) [27] was 4% and the collagen binding (%) [28] was 4%. It also gave a collagen binding (%) [29] of 45%, a collagen binding (%) [30] of 4% and a collagen binding (%) [31] of 3.5%. It also gave a collagen binding (%) [32] of 64%, a collagen binding (%) [33] of 4% and a collagen binding (%) [34] of 4%. For the same substance, the collagen binding (%) [35] was 100%.
